Values of other authors as cited in paper PMC8507859.
Read-outs that look alike come from different tables or passages of the source.

Key:
[1] = target: Integrin α2 (Homo sapiens) (UniProt P17301)
[2] = target: MMP-14 (Homo sapiens) (UniProt P50281)
[3] = target: MMP-14 (Homo sapiens) (UniProt P50281); remark: listed apart in the source

TIMP-2, sequence (P16035 27-220): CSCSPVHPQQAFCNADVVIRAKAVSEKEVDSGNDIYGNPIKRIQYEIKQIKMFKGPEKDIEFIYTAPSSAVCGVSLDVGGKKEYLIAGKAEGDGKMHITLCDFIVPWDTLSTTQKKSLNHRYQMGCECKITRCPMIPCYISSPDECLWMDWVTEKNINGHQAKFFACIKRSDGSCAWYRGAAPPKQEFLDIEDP
TIMP-1, sequence (P01033 24-207): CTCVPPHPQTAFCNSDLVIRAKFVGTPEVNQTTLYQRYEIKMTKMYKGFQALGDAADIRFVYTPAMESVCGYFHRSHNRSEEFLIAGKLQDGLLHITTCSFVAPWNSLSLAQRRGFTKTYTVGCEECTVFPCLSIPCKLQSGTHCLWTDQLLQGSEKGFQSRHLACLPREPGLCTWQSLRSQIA
Lumican, sequence (P51884 19-338): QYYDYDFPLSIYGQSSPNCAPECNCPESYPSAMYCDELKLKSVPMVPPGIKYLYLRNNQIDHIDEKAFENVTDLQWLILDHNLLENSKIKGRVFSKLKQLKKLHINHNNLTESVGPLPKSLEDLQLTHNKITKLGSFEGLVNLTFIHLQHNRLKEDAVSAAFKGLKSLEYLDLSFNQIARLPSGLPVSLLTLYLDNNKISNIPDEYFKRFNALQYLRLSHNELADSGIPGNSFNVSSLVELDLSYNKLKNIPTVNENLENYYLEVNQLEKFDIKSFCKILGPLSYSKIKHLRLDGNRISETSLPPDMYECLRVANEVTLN
Integrin α2 (Homo sapiens), sequence (P17301 30-1132): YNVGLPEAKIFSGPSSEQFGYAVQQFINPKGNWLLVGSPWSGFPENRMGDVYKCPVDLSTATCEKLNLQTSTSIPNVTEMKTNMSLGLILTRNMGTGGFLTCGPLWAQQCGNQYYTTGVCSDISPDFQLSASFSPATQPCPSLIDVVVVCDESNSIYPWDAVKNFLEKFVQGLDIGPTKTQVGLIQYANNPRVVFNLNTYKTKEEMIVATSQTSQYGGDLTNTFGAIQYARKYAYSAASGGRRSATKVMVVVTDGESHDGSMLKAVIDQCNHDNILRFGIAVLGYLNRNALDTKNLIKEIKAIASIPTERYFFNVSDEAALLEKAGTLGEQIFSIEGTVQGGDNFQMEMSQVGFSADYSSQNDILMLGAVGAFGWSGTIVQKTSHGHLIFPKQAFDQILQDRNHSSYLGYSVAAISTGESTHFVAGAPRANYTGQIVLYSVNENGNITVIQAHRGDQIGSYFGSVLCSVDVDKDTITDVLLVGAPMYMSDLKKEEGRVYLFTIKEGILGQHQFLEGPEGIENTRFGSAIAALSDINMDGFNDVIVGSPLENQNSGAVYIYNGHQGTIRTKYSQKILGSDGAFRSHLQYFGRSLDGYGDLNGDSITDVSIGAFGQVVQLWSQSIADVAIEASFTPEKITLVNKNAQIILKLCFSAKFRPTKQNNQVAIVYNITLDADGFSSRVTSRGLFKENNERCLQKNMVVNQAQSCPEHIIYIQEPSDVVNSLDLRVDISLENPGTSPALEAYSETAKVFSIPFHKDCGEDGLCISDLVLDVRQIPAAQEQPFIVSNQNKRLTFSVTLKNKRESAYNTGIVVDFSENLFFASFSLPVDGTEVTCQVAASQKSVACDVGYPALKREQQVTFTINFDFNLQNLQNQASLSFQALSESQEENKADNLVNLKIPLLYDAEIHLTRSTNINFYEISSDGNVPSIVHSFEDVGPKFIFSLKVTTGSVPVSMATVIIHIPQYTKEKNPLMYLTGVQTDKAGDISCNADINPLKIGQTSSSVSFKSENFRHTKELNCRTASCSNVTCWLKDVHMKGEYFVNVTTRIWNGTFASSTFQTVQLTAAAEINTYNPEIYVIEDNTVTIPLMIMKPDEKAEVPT

In the case of Lumican (from UniProt P51884), the Kd [1] is given as 200 nM.
In the case of TIMP-1 (from UniProt P01033), the Kd [2] is given as 1530 nM.
In the case of TIMP-2 (from UniProt P16035), the Kd [3] is listed as 56.1 nM.
